Experimental data from patent US20250296960A1, “PEPTIDE COMPOSITIONS AND METHODS OF USE THEREOF” (priority 2022, published 2025).
Numbered stars: 1 amine (or outer) side, 2 acyl side, 3 side chain; on linkers, the order of the positions; unused ones are H or OH. Square brackets hold non-standard residues; d marks the D form. Side chains are listed from the residue outwards. Ends that are not written are not given here. C18 = C18 fatty acid (C16-C22 fatty acids conjugated via γGlu/8-amino-3,6-dioxaoctanoic acid spacers); γGlu = O=C(O)[C@H](CCC(=O)[*:2])N[*:1]; AEEA = NCCOCCOCC(=O)O; Aib = CC(C)(N)C(=O)O; MAL = maleimide

T1: human glucose-dependent insulinotropic polypeptide receptor (GIPR), expressed on CHO-K1 cells (human, UniProt P48546 22-466)
T1 sequence (looked up): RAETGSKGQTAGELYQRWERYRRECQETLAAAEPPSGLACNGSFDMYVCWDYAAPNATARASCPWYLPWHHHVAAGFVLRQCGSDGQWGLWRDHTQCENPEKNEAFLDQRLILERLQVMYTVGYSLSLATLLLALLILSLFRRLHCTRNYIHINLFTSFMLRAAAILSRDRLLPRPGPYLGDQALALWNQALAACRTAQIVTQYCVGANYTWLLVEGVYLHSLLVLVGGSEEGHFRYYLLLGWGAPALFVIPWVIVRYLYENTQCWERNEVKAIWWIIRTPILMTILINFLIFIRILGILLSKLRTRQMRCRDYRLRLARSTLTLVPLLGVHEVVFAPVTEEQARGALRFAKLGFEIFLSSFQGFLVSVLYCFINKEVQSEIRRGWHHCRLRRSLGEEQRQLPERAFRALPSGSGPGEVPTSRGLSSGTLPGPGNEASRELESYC


target: T1, human glucose-dependent insulinotropic …; assay: cell-based or functional assay

Which “EC50 (nM), cAMP assay” value does the source give for H[Aib]QGTFTSDYSKLLDYMMQRDFVQWLLEGGPSSGAPPPSC([MAL-AEEA-AEEA-γGlu-C18])-NH2 [Peptide No. 5-5A] here?
Its value is 5.17 nM.

How did the “EC50 (nM), cAMP assay” value turn out when Y[Aib]QGTFTSDYSKYLDYMMARDFVQWLIEGGPSSGAPPPSC-NH2 (not fully specified (residue 40)) [Peptide No. 5-1A] was run?
The value was 53.9 nM.

How did the “EC50 (nM), cAMP assay” value turn out when H[Aib]QGTFTSDYSKYLDYMMARDFVQWLIEGGPSSGAPPPSC([MAL-AEEA-AEEA-γGlu-C18])-NH2 [Peptide No. 5A (peptide 5, A type: lipid at Cys40)] was run?
Its value is 157 nM.

target: T2, human glucagon receptor (GCGR), expressed on CHO-K1 cells (human, UniProt P47871 26-477); assay: cell-based or functional assay
T2 sequence (P47871 26-477): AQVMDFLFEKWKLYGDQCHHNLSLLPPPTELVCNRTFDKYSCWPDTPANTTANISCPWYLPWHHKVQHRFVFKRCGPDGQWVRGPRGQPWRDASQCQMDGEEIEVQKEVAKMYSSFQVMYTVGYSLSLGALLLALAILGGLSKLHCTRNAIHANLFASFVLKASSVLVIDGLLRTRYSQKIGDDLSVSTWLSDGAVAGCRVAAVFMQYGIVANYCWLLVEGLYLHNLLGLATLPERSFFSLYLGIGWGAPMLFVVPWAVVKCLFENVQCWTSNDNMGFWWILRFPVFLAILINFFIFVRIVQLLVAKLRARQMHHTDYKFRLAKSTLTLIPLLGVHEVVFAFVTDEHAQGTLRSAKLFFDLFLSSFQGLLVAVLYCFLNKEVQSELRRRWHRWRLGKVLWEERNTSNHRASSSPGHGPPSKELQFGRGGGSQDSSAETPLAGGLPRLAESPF

Which “EC50 (nM), cAMP assay” value does the source give for H[Aib]QGTFTSDYSKLLDYMMQRDFVQWLLEGGPSSGAPPPSC([MAL-AEEA-AEEA-γGlu-C18])-NH2 [Peptide No. 5-5A] here?
Its value is 9.43 nM.

Y[Aib]QGTFTSDYSKYLDYMMARDFVQWLIEGGPSSGAPPPSC-NH2 (not fully specified (residue 40)) [Peptide No. 5-1A] was tested. Which “EC50 (nM), cAMP assay” value did it give?
The value was 0.576 nM.

H[Aib]QGTFTSDYSKYLDYMMARDFVQWLIEGGPSSGAPPPSC([MAL-AEEA-AEEA-γGlu-C18])-NH2 [Peptide No. 5A (peptide 5, A type: lipid at Cys40)] was tested. Which “EC50 (nM), cAMP assay” value did it give?
The value was 1.71 nM.

target: T3, human GLP-1 receptor (GLP-1R), expressed on CHO-K1 cells (human, UniProt P43220 24-463); assay: cell-based or functional assay

H[Aib]QGTFTSDYSKLLDYMMQRDFVQWLLEGGPSSGAPPPSC([MAL-AEEA-AEEA-γGlu-C18])-NH2 [Peptide No. 5-5A] was tested. Which “EC50 (nM), cAMP assay” value did it give?
The value was 0.0747 nM.

With Y[Aib]QGTFTSDYSKYLDYMMARDFVQWLIEGGPSSGAPPPSC-NH2 (not fully specified (residue 40)) [Peptide No. 5-1A] as the binder, how does the “EC50 (nM), cAMP assay” value read?
Its value is 0.269 nM.

Which “EC50 (nM), cAMP assay” value does the source give for H[Aib]QGTFTSDYSKYLDYMMARDFVQWLIEGGPSSGAPPPSC([MAL-AEEA-AEEA-γGlu-C18])-NH2 [Peptide No. 5A (peptide 5, A type: lipid at Cys40)] here?
The value was 0.0967 nM.

target: T1, human glucose-dependent insulinotropic …; assay: cell-based or functional assay; remark: another data set of the same source

Which “Relative % to non-lipidated peptide” value does the source give for H[Aib]QGTFTSDYSKLLDYMMQRDFVQWLLEGGPSSGAPPPSC([MAL-AEEA-AEEA-γGlu-C18])-NH2 [Peptide No. 5-5A] here?
The value was 3%.

For Y[Aib]QGTFTSDYSKYLDYMMARDFVQWLIEGGPSSGAPPPSC-NH2 (not fully specified (residue 40)) [Peptide No. 5-1A], which “Relative % to non-lipidated peptide” value is on record?
The value was 11%.

target: T2, human glucagon receptor (GCGR), …; assay: cell-based or functional assay; remark: another data set of the same source

Which “Relative % to non-lipidated peptide” value does the source give for H[Aib]QGTFTSDYSKLLDYMMQRDFVQWLLEGGPSSGAPPPSC([MAL-AEEA-AEEA-γGlu-C18])-NH2 [Peptide No. 5-5A] here?
The value was 1%.

How did the “Relative % to non-lipidated peptide” value turn out when Y[Aib]QGTFTSDYSKYLDYMMARDFVQWLIEGGPSSGAPPPSC-NH2 (not fully specified (residue 40)) [Peptide No. 5-1A] was run?
Its value is 0%.

target: T3, human GLP-1 receptor (GLP-1R), …; assay: cell-based or functional assay; remark: another data set of the same source

Which “Relative % to non-lipidated peptide” value does the source give for H[Aib]QGTFTSDYSKLLDYMMQRDFVQWLLEGGPSSGAPPPSC([MAL-AEEA-AEEA-γGlu-C18])-NH2 [Peptide No. 5-5A] here?
Its value is 40%.

Which “Relative % to non-lipidated peptide” value does the source give for Y[Aib]QGTFTSDYSKYLDYMMARDFVQWLIEGGPSSGAPPPSC-NH2 (not fully specified (residue 40)) [Peptide No. 5-1A] here?
Its value is 159%.

target: T1, human glucose-dependent insulinotropic …; assay: cell-based or functional assay; remark: another data set of the same source

Which “Activity relative to GLP-1 (%)” value does the source give for H[Aib]QGTFTSDYSKLLDYMMQRDFVQWLLEGGPSSGAPPPSC([MAL-AEEA-AEEA-γGlu-C18])-NH2 [Peptide No. 5-5A] here?
The value was 2%.

For Y[Aib]QGTFTSDYSKYLDYMMARDFVQWLIEGGPSSGAPPPSC-NH2 (not fully specified (residue 40)) [Peptide No. 5-1A], which “Activity relative to GLP-1 (%)” value is on record?
Its value is 1%.

target: T2, human glucagon receptor (GCGR), …; assay: cell-based or functional assay; remark: another data set of the same source

Which “Activity relative to GLP-1 (%)” value does the source give for H[Aib]QGTFTSDYSKLLDYMMQRDFVQWLLEGGPSSGAPPPSC([MAL-AEEA-AEEA-γGlu-C18])-NH2 [Peptide No. 5-5A] here?
The value was 0%.

Y[Aib]QGTFTSDYSKYLDYMMARDFVQWLIEGGPSSGAPPPSC-NH2 (not fully specified (residue 40)) [Peptide No. 5-1A] was tested. Which “Activity relative to GLP-1 (%)” value did it give?
The value was 13%.

target: T3, human GLP-1 receptor (GLP-1R), …; assay: cell-based or functional assay; remark: another data set of the same source

H[Aib]QGTFTSDYSKLLDYMMQRDFVQWLLEGGPSSGAPPPSC([MAL-AEEA-AEEA-γGlu-C18])-NH2 [Peptide No. 5-5A] was tested. Which “Activity relative to GLP-1 (%)” value did it give?
Its value is 100%.

For Y[Aib]QGTFTSDYSKYLDYMMARDFVQWLIEGGPSSGAPPPSC-NH2 (not fully specified (residue 40)) [Peptide No. 5-1A], which “Activity relative to GLP-1 (%)” value is on record?
The value was 100%.

target: T1, human glucose-dependent insulinotropic …; assay: cell-based or functional assay; remark: another data set of the same source

Which “Relative % to native ligand” value does the source give for H[Aib]QGTFTSDYSKLLDYMMQRDFVQWLLEGGPSSGAPPPSC([MAL-AEEA-AEEA-γGlu-C18])-NH2 [Peptide No. 5-5A] here?
Its value is 14%.

Which “Relative % to native ligand” value does the source give for Y[Aib]QGTFTSDYSKYLDYMMARDFVQWLIEGGPSSGAPPPSC-NH2 (not fully specified (residue 40)) [Peptide No. 5-1A] here?
Its value is 1%.

target: T2, human glucagon receptor (GCGR), …; assay: cell-based or functional assay; remark: another data set of the same source

With H[Aib]QGTFTSDYSKLLDYMMQRDFVQWLLEGGPSSGAPPPSC([MAL-AEEA-AEEA-γGlu-C18])-NH2 [Peptide No. 5-5A] as the binder, how does the “Relative % to native ligand” value read?
Its value is 1%.

With Y[Aib]QGTFTSDYSKYLDYMMARDFVQWLIEGGPSSGAPPPSC-NH2 (not fully specified (residue 40)) [Peptide No. 5-1A] as the binder, how does the “Relative % to native ligand” value read?
The value was 24%.

target: T3, human GLP-1 receptor (GLP-1R), …; assay: cell-based or functional assay; remark: another data set of the same source

Which “Relative % to native ligand” value does the source give for H[Aib]QGTFTSDYSKLLDYMMQRDFVQWLLEGGPSSGAPPPSC([MAL-AEEA-AEEA-γGlu-C18])-NH2 [Peptide No. 5-5A] here?
The value was 673%.

Which “Relative % to native ligand” value does the source give for Y[Aib]QGTFTSDYSKYLDYMMARDFVQWLIEGGPSSGAPPPSC-NH2 (not fully specified (residue 40)) [Peptide No. 5-1A] here?
Its value is 187%.

target: T1, human glucose-dependent insulinotropic …; assay: cell-based or functional assay; remark: another data set of the same source

Which “Ratio vs. GLP-1R” value does the source give for H[Aib]QGTFTSDYSKLLDYMMQRDFVQWLLEGGPSSGAPPPSC([MAL-AEEA-AEEA-γGlu-C18])-NH2 [Peptide No. 5-5A] here?
Its value is 2.

Which “Ratio vs. GLP-1R” value does the source give for Y[Aib]QGTFTSDYSKYLDYMMARDFVQWLIEGGPSSGAPPPSC-NH2 (not fully specified (residue 40)) [Peptide No. 5-1A] here?
Its value is 1.

target: T2, human glucagon receptor (GCGR), …; assay: cell-based or functional assay; remark: another data set of the same source

H[Aib]QGTFTSDYSKLLDYMMQRDFVQWLLEGGPSSGAPPPSC([MAL-AEEA-AEEA-γGlu-C18])-NH2 [Peptide No. 5-5A] was tested. Which “Ratio vs. GLP-1R” value did it give?
The value was 0.

Y[Aib]QGTFTSDYSKYLDYMMARDFVQWLIEGGPSSGAPPPSC-NH2 (not fully specified (residue 40)) [Peptide No. 5-1A] was tested. Which “Ratio vs. GLP-1R” value did it give?
The value was 13.

target: T3, human GLP-1 receptor (GLP-1R), …; assay: cell-based or functional assay; remark: another data set of the same source

H[Aib]QGTFTSDYSKLLDYMMQRDFVQWLLEGGPSSGAPPPSC([MAL-AEEA-AEEA-γGlu-C18])-NH2 [Peptide No. 5-5A] was tested. Which “Ratio vs. GLP-1R” value did it give?
The value was 100.

Y[Aib]QGTFTSDYSKYLDYMMARDFVQWLIEGGPSSGAPPPSC-NH2 (not fully specified (residue 40)) [Peptide No. 5-1A] was tested. Which “Ratio vs. GLP-1R” value did it give?
The value was 100.

target: T1, human glucose-dependent insulinotropic …; assay: cell-based or functional assay; remark: another data set of the same source

With H[Aib]QGTFTSDYSKYLDYMMARDFVQWLIEGGPSSGAPPPSC([MAL-AEEA-AEEA-γGlu-C18])-NH2 [Peptide No. 5A (peptide 5, A type: lipid at Cys40)] as the binder, how does the “EC50 (nM), cAMP assay” value read?
The value was 140 nM.

target: T2, human glucagon receptor (GCGR), …; assay: cell-based or functional assay; remark: another data set of the same source

With H[Aib]QGTFTSDYSKYLDYMMARDFVQWLIEGGPSSGAPPPSC([MAL-AEEA-AEEA-γGlu-C18])-NH2 [Peptide No. 5A (peptide 5, A type: lipid at Cys40)] as the binder, how does the “EC50 (nM), cAMP assay” value read?
Its value is 9.29 nM.

target: T3, human GLP-1 receptor (GLP-1R), …; assay: cell-based or functional assay; remark: another data set of the same source

H[Aib]QGTFTSDYSKYLDYMMARDFVQWLIEGGPSSGAPPPSC([MAL-AEEA-AEEA-γGlu-C18])-NH2 [Peptide No. 5A (peptide 5, A type: lipid at Cys40)] was tested. Which “EC50 (nM), cAMP assay” value did it give?
The value was 0.187 nM.
